Laboratory results as given in article PMC6386680 (Proceedings of the National Academy of Sciences of the …, 2019).

Key:
Gal-3 CRD (trGal-3) = Gal-3 CRD (trGal-3) (Homo sapiens, UniProt P17931); assay: hydrogen-deuterium exchange mass spectrometry; assay type: binding; conditions: absence vs presence of lactose; canonical site
[1] = biological target: Gal-3–8S–Gal-1 (covalently connected heterodimer, Gal-3 CRD, 33-aa Gal-8 linker, Gal-1 CRD) (human); assay: SAXS
[2] = biological target: Gal-3–8S–Gal-1 (covalently connected heterodimer, Gal-3 CRD, 33-aa Gal-8 linker, Gal-1 CRD) (human); assay: SEC

Sequence of Gal-3 CRD (trGal-3) (P17931 108-250 limits assumed): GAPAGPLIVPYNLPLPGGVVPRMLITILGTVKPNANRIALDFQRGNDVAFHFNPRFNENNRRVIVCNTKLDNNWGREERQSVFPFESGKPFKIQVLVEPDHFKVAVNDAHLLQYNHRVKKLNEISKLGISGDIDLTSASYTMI

| Compound | hydrogen-deuterium exchange mass spectrometry (Gal-3 CRD (trGal-3)) | stoichiometry N [1] | stoichiometry N [2] |
| --- | --- | --- | --- |
| OC[C@H]1O[C@@H](O[C@H]2[C@H](O)[C@@H](O)C(O)O[C@@H]2CO)[C@H](O)[C@@H](O)[C@H]1O (stereo partly drawn) [Lac] | significantly decreased deuterium uptake was found in the region of the canonical binding site | – | – |
| Gal-3–8S–Gal-1 (covalently connected heterodimer, Gal-3 CRD, 33-aa Gal-8 linker, Gal-1 CRD) | – | 2 | 2 |
